Test results: patent US20250289873A1 (BROADWING BIO, published 2025)
Positions count from the first letter of the chain named.

T1: Human CFHL1-Y402H-His (ATX-P-421) (human)
T1 construct: also called human CFHL-1 (Y402H) protein
T1 chain: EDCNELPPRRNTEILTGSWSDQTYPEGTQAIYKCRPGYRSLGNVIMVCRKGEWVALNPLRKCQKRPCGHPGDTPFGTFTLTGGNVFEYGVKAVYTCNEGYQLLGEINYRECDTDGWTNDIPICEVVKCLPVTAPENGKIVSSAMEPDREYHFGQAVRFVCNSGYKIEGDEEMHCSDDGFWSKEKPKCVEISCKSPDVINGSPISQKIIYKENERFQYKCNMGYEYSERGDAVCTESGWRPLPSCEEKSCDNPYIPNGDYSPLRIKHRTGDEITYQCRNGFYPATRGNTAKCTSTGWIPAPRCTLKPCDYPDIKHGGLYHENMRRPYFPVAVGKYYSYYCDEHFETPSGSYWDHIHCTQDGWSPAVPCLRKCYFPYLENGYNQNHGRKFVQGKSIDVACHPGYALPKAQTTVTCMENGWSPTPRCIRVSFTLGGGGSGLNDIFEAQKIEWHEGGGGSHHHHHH

T2: human CFHL3-His (ATX-P-58) (human, UniProt Q02985 19-330)
T2 construct: also called human CFHR3 protein; CFHR3; not shown: C-terminal His tag (and linker)
T2 sequence (looked up): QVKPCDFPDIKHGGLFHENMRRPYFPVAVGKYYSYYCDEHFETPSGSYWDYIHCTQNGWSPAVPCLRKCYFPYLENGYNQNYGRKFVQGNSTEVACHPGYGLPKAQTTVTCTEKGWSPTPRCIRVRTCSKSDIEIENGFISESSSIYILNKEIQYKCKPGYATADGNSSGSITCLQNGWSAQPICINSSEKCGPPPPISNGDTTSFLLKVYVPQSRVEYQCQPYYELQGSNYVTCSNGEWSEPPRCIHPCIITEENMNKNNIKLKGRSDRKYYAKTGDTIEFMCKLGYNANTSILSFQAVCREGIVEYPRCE

B1: ATX-P-570 (antibody, human IgG1, kappa, N297A, V domains shown)
VH: QVQLQESGPGLVKPSETMSLTCTVSGGSFTGYYWSWIRQPPGKGLEWIGYVHYSGGTKSNPSLKSRVTISVDTSKNQFSLKLSSVTAADTAVYYCARERYEWNSYFDYWGQGTLVTVSS
VL: not shown
B2: ATX-P-571 (antibody, human IgG1, kappa, N297A, V domains shown)
VH: QVQLQESGPGLVKPSGTLSLTCAVSGGSISSRNWWSWVRQPPGKGLEWIGEIYHGGTTNYNPSLKSRVTISVDKSKNQFSLKLSSVTAADTAVYYCARGGLRLGELSPNAFDIWGQGTMVTVSS
VL: DIQMTQSPSSLSASVGDRVTITCRASQSISSYLNWYQQKPGKAPKVLIYAASSLQSGIPSRFSGSGSGTDFTLTISSLQPEDFATYYCQETYSVPLTFGGGTKVEIKR
B3: ATX-P-582 (antibody, human IgG1, kappa, N297A, V domains shown)
VH: QVQLQESGPGLVKPSGTLSLTCAVSGGSISISKWWSWVRQPPGKGLEWIGEIYHTGSTNYHPSLKSRVTISVDKSKNQFYLKLNSVTAADTAVYYCARDELRLGELSPSLDIWGQGTMVTVSS
VL: DIQMTQSPSSLSASVGDRVTITCRASQNINNYLNWFRQKPGKAPKLLIFAASSLQSGVPSRFSGSESGTDFTLTISSLQPEDFATYYCQQSYSTPLTFGGGTKVEIKR
B4: ATX-P-591 (antibody, V domains shown)
VH: QVQLVQSGAEVKKPGASVKVSCKASGYTFTSYGISWVRQAPGQGLEWMGWISAYNGNTNYAQKLQGRVTMTTDTSTSTAYMELRSLRSDDTAIYYCTRDLRGTAFDYWGQGTPVTVSS
VL: DIQMTQSPSSLSASVGDRVTITCRASQSINTYLNWYQQKPGKAPKLLIYAASSLQSGVPSRFSGSGSGTDFTLTISSLQPEDFATYSCQHSFTTPFTFGPGTKLEIKR
B5: ATX-P-594 (antibody, human IgG1, kappa, N297A, V domains shown)
VH: QVQLQQSGPGLVKPSQTLSLTCAISGDSVSSNSASWNWIRQSPSRGLEWLGTTYYRSKWFNVYAVSVKSRITINPDTSKNQFSLHLNSVTPEDTAIYFCTRDRGDLLHWYFDLWGRGTLVTVSS
VL: EIVLTQSPGTLSLSPGERATLSCRASQSVSSSYLAWYQQKPGQSPRLLIYGASSRATGIPDRFSGSGSGTDFTLTISRLEPEDFAVYYCQQYGRSVTFGGGTKLEIKR
B6: ATX-P-592 (antibody, human IgG1, kappa, N297A, V domains shown)
VH: QVQLQQSGPGLVKPSQTLSLTCAISGDSVSSNSAAWNWIRQSPSRGLEWLGRTYYRSKWYSDYPLSVKSRITINPDTSKNQFSLQLNSVTPEDTAVYYCARDSGIVETTPFDYWGQGTLVTVSS
VL: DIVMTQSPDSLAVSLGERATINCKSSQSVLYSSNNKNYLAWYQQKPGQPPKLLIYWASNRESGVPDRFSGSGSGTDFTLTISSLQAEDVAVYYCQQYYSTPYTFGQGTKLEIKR
B7: ATX-P-595 (antibody, human IgG1, kappa, N297A, V domains shown)
VH: B6 VH with Y60F, S61N, P64A, Q85H, D102E, S103P, E107A, T108P, T109G
VL: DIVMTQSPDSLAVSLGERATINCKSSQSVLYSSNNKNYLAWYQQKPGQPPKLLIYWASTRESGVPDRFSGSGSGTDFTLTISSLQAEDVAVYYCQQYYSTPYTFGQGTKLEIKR
B8: ATX-P-596 (antibody, human IgG1, kappa, N297A, V domains shown)
VH: EVQLVESGGGLVQPGRSLRLSCAASGFSFDDYAMHWVRQVPGKGLEWVSGISWTGGSVGYADPVKGRFTISRDNAKNSLYLQMNSLRPEDTALYYCAKDMGDGYSRNWPFDYWGQGTLVTVSS
VL: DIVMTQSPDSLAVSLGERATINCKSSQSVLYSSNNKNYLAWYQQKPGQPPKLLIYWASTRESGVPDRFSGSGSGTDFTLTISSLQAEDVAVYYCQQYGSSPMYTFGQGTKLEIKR
B9: ATX-P-600 (antibody, human IgG1, kappa, N297A, V domains shown)
VH: EVQLVESGGGLVQPGRSLRLSCAASGFTFDDYAMHWVRQVPGRGLEWVSGISWSGGSIGYADSVKGRFTISRDNSKNSLYLQMNSLRAEDTALYYCTKDREDGYNYGGVFDYWGQGTLVTVSS
VL: EIVLTQSPGTLSLSPGERATLSCRASQNVRGSYLAWYQQKPGQAPRLLIYGASNRATDIPDRFSGSGSGTDFTLTISGLEPEDFVVYYCQQYGSSYTFGQGTKVEIKR
B10: ATX-P-561 (antibody, human IgG1, kappa, N297A, V domains shown)
VH: QVQLQQSGPGLVKPSQTLSLTCAISGDSVSSNSAAWNWIRQSPSRGLEWLGRTYYRSKWYNGYAVSMKSRITINPDTSKNQFSLQLNSVTPEDTAMYYCAREGVGATTGFDYWGQGTLVTVSS
VL: DIQMTQSPSSLSASVGDRVTITCRASQGISSWLTWYQQKPGKAPKLLIYAASSLQGGVPSRFSGSGSGTDFTLTISSLQPEDFATYYCQQANSFPPTFGQGTKVEIKR
B11: ATX-P-569 (antibody, human IgG1, kappa, N297A, V domains shown)
VH: EVQLVESGGGLAQFGRSLRLSCAASGFTFDDYAMHWLRQAPGMGLEWVSGISWNSGSIGYADSVKGRFTIARDNAKNSVHLQMNSLRAEDTALYYCAKDIGNGYTKGDVFDIWGQGTMVTVSS
VL: DIQMTQSPSTLSASVGDSVTITCRASQNIITWLAWYQQKPGKAPNLLIYKASSLESGVPSRFSGSGSGTEFTLTISSLQPDDFATYYCQQYSSYSYTFGQGTKLEIKR
B12: ATX-P-572 (antibody, human IgG1, kappa, N297A, V domains shown)
VH: B6 VH with R52M, D62V, Y63F, P64A, L65V, P75T, D102E, S103G, E107G, T108A
VL: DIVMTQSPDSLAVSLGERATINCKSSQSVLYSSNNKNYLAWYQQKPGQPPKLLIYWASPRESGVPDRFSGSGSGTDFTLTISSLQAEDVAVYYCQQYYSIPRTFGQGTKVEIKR
B13: ATX-P-608 (antibody, human IgG1, kappa, N297A, V domains shown)
VH: QVQLQESGPGLVKPSGTLSLTCAVSGGSISSSNWWSWVRQSPGKGLEWIGEIYHTGSTNKKPSLKSRVIISVDKSKNQFSLKLISVNAADTAIYYCARDREGGTTEAFDIWGQGTMVTVSS
VL: EIVMTQSPATLSVSPGERATLSCRASQSVSSNLAWYQQKPGQAPRLLIYGASTRATGIPVRFSGSGSGTQFTLTISSLQSEDFAVYYCQQYDNWRTFGQGTRLEIKR
B14: ATX-P-609 (antibody, human IgG1, kappa, N297A, V domains shown)
VH: QVQLQESGPGLVKPSGTLSLTCAVSGGSISSSNWWSWVRQPPGKGLEWIGEIYHSGSTNYNPSLKSRVTISVDKSKNQFSLKLRSVTAADTAVYYCARDQLSSGPTDAFDIWGQGTMVTVSS
VL: B13 VL with R102K
B15: ATX-P-610 (antibody, human IgG1, kappa, N297A, V domains shown)
VH: QVQLQQSGPGLVKSSQTLSITCAISGDSVSSNSAAWNWIRQSPSRGLEWLGRTYYRSKWYNDYALSVKSRIIIKSDTSKNQFSLQLNSVTPEDTAVYYCAREPGIAAPGPFDYWGQGSLVTVSS
VL: B10 VL with L11V, T34A, G56S, A91N, N92Y, S93R, F94T, P96I, K103R, V104L
B16: ATX-P-603 (antibody, human IgG1, kappa, N297A, V domains shown)
VH: QVQLQESGPGLVKPSGTLSLTCAVSGGSISGSHWWSWFRQPPGKGLEWIGEIYHTGSTNKNPSLKSRVTISLDKSKNQFSLRLRSVTDADTAVYYCARDQYTGSPRDAFDIWGQGTMVTVSS
VL: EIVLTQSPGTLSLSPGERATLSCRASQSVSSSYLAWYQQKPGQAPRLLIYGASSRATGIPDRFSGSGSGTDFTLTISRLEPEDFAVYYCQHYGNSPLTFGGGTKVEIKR

Key:
[1] = molecular target: T1, Human CFHL1-Y402H-His (ATX-P-421); assay: Carterra LSA biosensor, mAb printed on chip, human CFHL1-Y402H-His at 380 nM
Protocol: (§1) Experiments were also conducted to determine the reactivity of the CFHR4 antibodies with the human CFHL-1 (Y402H) protein (FIG. 10). The binding experiments were performed on Carterra LSA with a running buffer of PBS pH 7.40, 1% BSA, 0.05% Tween20. Antibodies were covalently printed on an HC30M chip. Chip was activated with 33 mM s-NHS and 133 mM EDC in 100 mM MES pH 5.5 for 7 minutes. Antibodies at 10 mg/ml in acetic acid buffer pH 4.5 were used for printing for 10 min. The printed chip was then quenched with 1 M ethanolamine pH 8.5 for 7 min. For the reactivity assay, ATX-P-421, human CFHL1-Y402H-His, at 380 nM was tested with 5 min association followed by 15 min dissociation. Results were processed and analyzed in Carterra LSA Kinetics Software. The data was referenced with the interstitial reference spots and double-referenced to a buffer cycle, and then the responses (nm) after association were reported. Isotype control was used to determine the cutoff response for positive binding.

[2] = molecular target: T2, human CFHL3-His (ATX-P-58); assay: Carterra LSA biosensor, mAb printed on chip, cutoff set by isotype control
Protocol: as §1, with “CFHR3” for “CFHL-1 (Y402H)”, “9).” for “10).”, “ATX-P-58,” for “ATX-P-421,”, “CFHL3-His,” for “CFHL1-Y402H-His,”, “550” for “380”
as §1

[3] = molecular target: T2, human CFHL3-His (ATX-P-58); assay: Carterra LSA biosensor, mAb printed on chip, human CFHL3-His at 550 nM
Protocol: as §1, with “CFHR3” for “CFHL-1 (Y402H)”, “9).” for “10).”, “ATX-P-58,” for “ATX-P-421,”, “CFHL3-His,” for “CFHL1-Y402H-His,”, “550” for “380”

[4] = molecular target: T1, Human CFHL1-Y402H-His (ATX-P-421); assay: Carterra LSA biosensor, mAb printed on chip, cutoff set by isotype control
Protocol: as §1, with “CFHR3” for “CFHL-1 (Y402H)”, “9).” for “10).”, “ATX-P-58,” for “ATX-P-421,”, “CFHL3-His,” for “CFHL1-Y402H-His,”, “550” for “380”
as §1

Row | Binder | binding result [1] | binding result [2] | binding result [3] | binding result [4]
1 | B1 | binds | no binding (tested: 550 nM) |  | 
2 | B2 | binds | no binding (tested: 550 nM) |  | 
3 | B3 | binds | no binding (tested: 550 nM) |  | 
4 | B4 | binds | no binding (tested: 550 nM) |  | 
5 | B5 | binds |  | binds | 
6 | B6 |  |  | binds | no binding (tested: 380 nM)
7 | B7 | binds |  | binds | 
8 | B8 | binds |  | binds | 
9 | B9 | binds |  | binds | 
10 | B10 | binds |  | binds | 
11 | B11 |  |  | binds | no binding (tested: 380 nM)
12 | B12 |  |  | binds | no binding (tested: 380 nM)
13 | B13 |  |  | binds | no binding (tested: 380 nM)
14 | B14 |  |  | binds | no binding (tested: 380 nM)
15 | B15 |  |  | binds | no binding (tested: 380 nM)
16 | B16 |  |  |  | no binding (tested: 380 nM)
